Source: US20220195015A1 (published 2022)

These binders were tested against SARS-CoV-2 spike receptor binding domain (RBD), wild type (SARS-CoV-2, UniProt P0DTC2 319-539) (assay: ELISA on coated RBD protein).

Binder | EC50
C002 (antibody, V domains shown) VH: EVQLVESGGGVVQPGRSLRLSCAASGFTFSIYGMHWVRQAPGKGLEWVAVISYDGSNKYYADSVKGRFTISRDNSKNTLYLQMNSLRAEDTAVYYCAKEGRPSDIVVVVAFDYWGQGTLVTVSS VL: not shown | 1.98 ng/mL
C021 (antibody, V domains shown) VH: QVQLQESGPGLVKPSQTLSLTCTVSGGSISSGGYYWSWIRQHPGKGLEWIGYIYYSGSTYYNPSLKSRVTISVDTSKNQFSLKLSSVTAADTAVYYCARVWQYYDSSGSFDYWGQGTLVTVSS VL: not shown | 4.19 ng/mL

What follows are binders tested against SARS-CoV-2 RBD (S protein residues 319-539), wild type (SARS-CoV-2, UniProt P0DTC2 319-539) (assay: ELISA, RBD coated on plate, mAb titrated).

Binder | EC50
C584 (antibody, V domains shown) VH: EVQLVESGGGLVQPGGSLRLSCAASGFTFSTYDMHWVRQATGKGLEWVSAIGTAGDKYYPGSVKGRFTISRENAKNSLYLQMNSLRAGDTAVYYCVRAGYSSGWPLYWYFDLWGRGTLVTVSS VL: DIQMTQSPSSLSASVGDRVTITCRASQSISSYLNWYQQKPGKAPKFLIYAASSLQSGVPSRFSGSGSGTDFTLTISNLQPEDFATYYCQQSYRTPPEFTFGPGTKVDIK | 10.5 ng/mL
C586 (antibody, V domains shown) VH: EVQLVESGGGLIQPGGSLRLSCTASGLIVSSNYMSWIRQAPGKGLEWVSLIYSGGSTFYADSVKGRFTISRDNSKNTLFLHMNSLRAEDTAVYYCARHPYGTDVWGQGTTVTVSS VL: DIQMTQSPSSLSASVGDRVTITCQASQDIVKYLNWYQQKSGKAPKLLIHDASNLETGVTSRFSGSGSGTHFTFTISSLQPEDLATYYCQQYDNLPITFGQGTRLEIK | 5.42 ng/mL
C590 (antibody, V domains shown) VH: QVQLVQSGAEVKKPGASVKVSCKVSGYNLTELSMYWVRQAPGKGLEWMGGFDPEDGGPIHAQKFQGRVTMTEDPSTDTAYMELRSLRSEDTALYYCATGGLFMIRGLEIWGRGTLVTVSS VL: EIVLTQSPGTLSLSPGERATLSCRASQSISYTSLAWYQQKPGQAPRLLIFGASRGATGTPDRFSGSWSGTDFTLTISRLEPEDFAVYYCQQYGNSPRLSFGGGTKVEIK | 2.81 ng/mL
C587 (antibody, V domains shown) VH: QVQLVQSGAEVKKSGSSVKVSCKASGGSFSSYAISWVRQAPGQGLEWMGGIIPIFGTAKYAQKFQGRVTITADESTSTAYMELSSLRSEDTAVYYCASRWEQLNGGSWHYFDYWGQGTLVTVSS VL: QSALTQPASVSGSPGQSITISCTGTRSDVGRNNLVSWYQHHPGKAPKVMIYEGSKRPSGVSTRFSGSKSGNTASLTISGLQAEDEADYYCCSYAGSSTFEGVFGGGTKLTVL | 4.39 ng/mL
C588 (antibody, V domains shown) VH: EVQLVESGGGLVQPGGSLKLSCAASGFTFSGSAMHWVRQASGKGLEWVGRIRNKANSYATAYGASVRGRFTVSRDDSKNTAYLQMNSLKIEDTAVYYCTKDIAAGIPALNWFDSWGQGTLVTVSS VL: EIVLTQSPATLSLSPGERATLSCRASQSVSSYLAWYQQKPGQAPRLLIYDASNRATGIPARFSGSGSGTDFTLTISSLEPEDFAVYYCQQHTNWPPRITFGGGTKVEIK | 1.36 ng/mL
C585 (antibody, V domains shown) VH: QVQLQESGPGLVKPSETLSLTCTVSGDSISSYFWSWIRQPPGRGLEWIGYIHDSVNTNYNPSLKSRVTISVDTSKSQFSLRLSSVTAADTAVYYCARCAWLRGSFDYWGQGTLVTVSS VL: NFMLTQPHSVSESPGKTVTISCTGSSGSIASNYVQWYQQRPGSAPTTVIYEDNQRPSGVPDRFSGSIDSSSNSASLTISGLKTEDEADYYCQSYDFSSHYVFGTGTKVTVL | 11 ng/mL
C589 (antibody, V domains shown) VH: QVQLQESGPGLVKPSQTLSLTCTVSGGSISSGDYYWSWIRQPPGKGLEWIGYIYYSGSTNYNPSLRSRVTISVDTSKNQFSLRLRSVTAADTAVYYCARDAIGSASYGVEYFQHWGQGTLVTVSS VL: not shown | 6.61 ng/mL
